# Substitutions are numbered along the chain they refer to.
# B1: 371 (protein)
# chain: LDNGLARTPTMGWLHWERFMCNLDCQEEPDSCISEKLFMEMAEWMVSEGWKDAGYEYLCIDDCWMAPQRDSEGRLQADPQRFPHGIRQLANYVHSKGLKLGIYADVGNKTCAGFPGSFGYYDIDAQTFADWGVDLLKFDGCYCDSLENLADGYKHMSLALNRTGRSIVYSCEWPLYMWPFQKPNYTEIRQYCNHWRNFADIDDSWKSIKSILDWTSRNQERIVDVAGPGGWNDPDMLVIGNFGLSWDQQVTQMALWAIMAAPLFMSNDLRHISPQAKALLQDKDVIAINQDPLGKQGYQLRKGDNFEVWERPLSGDAWAVAIINRQEIGGPRSYTIPVASLGKGVACNPACFITQLLPVKRQLGFYNWTSRLKSHINPTGTVLLQLENTMQMSLKDLL
# modifications: Synthetic Polypeptide sequence of Variant No. 371 of mature Human GLA
# B2: 488 (protein)
# chain: LDNGLARTPTMGWLHWERFMCNLDCQEEPDSCISEKLFMEMAERMVSEGWKDAGYEYLCIDDCWMAPQRDSEGRLQADPQRFPHGIRQLANYVHSKGLKLGIYADVGNKTCAGFPGSFGYYDIDAQTFADWGVDLLKFDGCYCDSLENLADGYKHMSLALNRTGRSIVYSCEWPLYMWPFQKPNYTEIRQYCNHWRNFADIDDSWKSIKSILDWTSFNQERIVDVAGPGGWNDPDMLVIGNFGLSWNQQVTQMALWAIMAAPLFMSNDLRHISPQAKALLQDKDVIAINQDPLGKQGYQLRQGDNFEVWERPLSGLAWAVAMINRQEIGGPRSYTIAVASLGKGVACNPACFITQLLPVKRKLGFYEWTSRLRSHINPTGTVLLQLENNMQMSLKDLL
# modifications: Synthetic Polypeptide sequence of Variant No. 488 of mature Human GLA
# B3: 495 (protein)
# chain: B2 chain with N389P
# modifications: Synthetic Polypeptide sequence of Variant No. 495 of mature Human GLA
# B4: 491 (protein)
# chain: B2 chain with N389T, M390W
# modifications: Synthetic Polypeptide sequence of Variant No. 491 of mature Human GLA
# B5: 500 (protein)
# chain: B2 chain with N389T, M390A
# modifications: Synthetic Polypeptide sequence of Variant No. 500 of mature Human GLA
# B6: 489 (protein)
# chain: B2 chain with N389I
# modifications: Synthetic Polypeptide sequence of Variant No. 489 of mature Human GLA
# B7: 493 (protein)
# chain: B2 chain with N389T, M392P
# modifications: Synthetic Polypeptide sequence of Variant No. 493 of mature Human GLA
# B8: 496 (protein)
# chain: B2 chain with N389T, M390V
# modifications: Synthetic Polypeptide sequence of Variant No. 496 of mature Human GLA
# B9: 498 (protein)
# chain: B2 chain with N389T, M392I
# modifications: Synthetic Polypeptide sequence of Variant No. 498 of mature Human GLA
# B10: 490 (protein)
# chain: B2 chain with N389T, M390D
# modifications: Synthetic Polypeptide sequence of Variant No. 490 of mature Human GLA
# B11: 497 (protein)
# chain: B2 chain with N389T, M390K
# modifications: Synthetic Polypeptide sequence of Variant No. 497 of mature Human GLA
# B12: 499 (protein)
# chain: B2 chain with N389L
# modifications: Synthetic Polypeptide sequence of Variant No. 499 of mature Human GLA
# B13: 494 (protein)
# chain: B2 chain with N389T, M390F
# modifications: Synthetic Polypeptide sequence of Variant No. 494 of mature Human GLA
# B14: 492 (protein)
# chain: B2 chain with N389C
# modifications: Synthetic Polypeptide sequence of Variant No. 492 of mature Human GLA
# Assay: HTP-analysis of supernatants pretreated with acid (MUGal hydrolysis)
# Format: biochemical
# Settings: activity of the variant/activity of Rd4BB (SEQ ID NO: 15); challenge at pH 3.7
# Summary of the method: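 GLA variants were secreted from INVSc1 yeast grown 66-84 h at 30° C. in SD-Ura with 2% glucose; supernatants were mixed with McIlvaine buffer pH 3.3-4.3 and held at 37° C. for 1-3 h. Residual activity on MUGal at pH 4.8 was then measured by fluorescence.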
row,Molecule,Relative Activity of GLA Variants After Challenge at pH 3.7
1,B1,− (<0.5 relative activity over Rd4BB (SEQ ID NO: 15))
2,B2,+ (0.5 to 1.5 relative activity over Rd4BB (SEQ ID NO: 15))
3,B3,+ (0.5 to 1.5 relative activity over Rd4BB (SEQ ID NO: 15))
4,B4,+ (0.5 to 1.5 relative activity over Rd4BB (SEQ ID NO: 15))
5,B5,+ (0.5 to 1.5 relative activity over Rd4BB (SEQ ID NO: 15))
6,B6,+ (0.5 to 1.5 relative activity over Rd4BB (SEQ ID NO: 15))
7,B7,+ (0.5 to 1.5 relative activity over Rd4BB (SEQ ID NO: 15))
8,B8,+ (0.5 to 1.5 relative activity over Rd4BB (SEQ ID NO: 15))
9,B9,+ (0.5 to 1.5 relative activity over Rd4BB (SEQ ID NO: 15))
10,B10,+ (0.5 to 1.5 relative activity over Rd4BB (SEQ ID NO: 15))
11,B11,++ (>1.5 to 2.5 relative activity over Rd4BB (SEQ ID NO: 15))
12,B12,+ (0.5 to 1.5 relative activity over Rd4BB (SEQ ID NO: 15))
13,B13,+ (0.5 to 1.5 relative activity over Rd4BB (SEQ ID NO: 15))
14,B14,+ (0.5 to 1.5 relative activity over Rd4BB (SEQ ID NO: 15))

# Assay: HTP-analysis of yeast culture supernatants, no challenge (MUGal hydrolysis)
# Format: biochemical
# Settings: activity of the variant/activity of Rd4BB (SEQ ID NO: 15)
# Summary of the method: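 GLA variants expressed in yeast INVSc1, secreted into SD-Ura broth over 66-84 h at 30° C; clarified supernatants tested without challenge. Supernatant mixed with McIlvaine buffer pH 4.8 and 2 mM MUGal (citrate/KCl, pH 4.6), 37° C for 30-180 min, carbonate-quenched, fluorescence Ex 355/Em 448 nm.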
row,Molecule,Relative Activity of GLA Variants After No Challenge (NC)
1,B1,+ (0.5 to 1.5 relative activity over Rd4BB (SEQ ID NO: 15))
2,B2,+ (0.5 to 1.5 relative activity over Rd4BB (SEQ ID NO: 15))
3,B3,+ (0.5 to 1.5 relative activity over Rd4BB (SEQ ID NO: 15))
4,B4,+ (0.5 to 1.5 relative activity over Rd4BB (SEQ ID NO: 15))
5,B5,+ (0.5 to 1.5 relative activity over Rd4BB (SEQ ID NO: 15))
6,B6,+ (0.5 to 1.5 relative activity over Rd4BB (SEQ ID NO: 15))
7,B7,+ (0.5 to 1.5 relative activity over Rd4BB (SEQ ID NO: 15))
8,B8,+ (0.5 to 1.5 relative activity over Rd4BB (SEQ ID NO: 15))
9,B9,+ (0.5 to 1.5 relative activity over Rd4BB (SEQ ID NO: 15))
10,B10,+ (0.5 to 1.5 relative activity over Rd4BB (SEQ ID NO: 15))
11,B11,+ (0.5 to 1.5 relative activity over Rd4BB (SEQ ID NO: 15))
12,B12,+ (0.5 to 1.5 relative activity over Rd4BB (SEQ ID NO: 15))
13,B13,+ (0.5 to 1.5 relative activity over Rd4BB (SEQ ID NO: 15))
14,B14,+ (0.5 to 1.5 relative activity over Rd4BB (SEQ ID NO: 15))

# Assay: HTP-analysis of supernatants pretreated with base (MUGal hydrolysis)
# Format: biochemical
# Settings: activity of the variant/activity of Rd4BB (SEQ ID NO: 15); challenge at pH 9.65
# Summary of the method: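 Fluorescence of released 4-MU (Ex 355 nm, Em 448 nm) after carbonate quench reports MUGal hydrolysis by GLA variants secreted from INVSc1 yeast. Before the acidic (pH 4.3-4.8) 30-180 min reaction at 37° C, supernatants had been pre-incubated at pH 7.0-9.7 for 1-18 h at 37° C.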
row,Molecule,Relative Activity of GLA Variants After Challenge at pH 9.65
1,B1,+ (0.5 to 1.5 relative activity over Rd4BB (SEQ ID NO: 15))
2,B2,+ (0.5 to 1.5 relative activity over Rd4BB (SEQ ID NO: 15))
3,B3,+ (0.5 to 1.5 relative activity over Rd4BB (SEQ ID NO: 15))
4,B4,+ (0.5 to 1.5 relative activity over Rd4BB (SEQ ID NO: 15))
5,B5,+ (0.5 to 1.5 relative activity over Rd4BB (SEQ ID NO: 15))
6,B6,+ (0.5 to 1.5 relative activity over Rd4BB (SEQ ID NO: 15))
7,B7,+ (0.5 to 1.5 relative activity over Rd4BB (SEQ ID NO: 15))
8,B8,+ (0.5 to 1.5 relative activity over Rd4BB (SEQ ID NO: 15))
9,B9,+ (0.5 to 1.5 relative activity over Rd4BB (SEQ ID NO: 15))
10,B10,+ (0.5 to 1.5 relative activity over Rd4BB (SEQ ID NO: 15))
11,B11,+ (0.5 to 1.5 relative activity over Rd4BB (SEQ ID NO: 15))
12,B12,+ (0.5 to 1.5 relative activity over Rd4BB (SEQ ID NO: 15))
13,B13,+ (0.5 to 1.5 relative activity over Rd4BB (SEQ ID NO: 15))
14,B14,+ (0.5 to 1.5 relative activity over Rd4BB (SEQ ID NO: 15))
